Reference: US12016906B2, “Pharmaceutical composition for anaemia” (Frimline Private Limited, priority 2018, dated 2024)

Assays:
Type in all cases: in vivo, male Wistar rats (Rat Rattus)
Conditions in all cases: IDD rats
[1] = tested on: Iron deficient Diet (IDD) induced anaemia in rats; assay: Hb level in IDD induced anaemia in rats
Method: (§1) Screening of pharmaceutical composition/formulation comprising combination of Lactoferrin+Guanosine Nucleotide or a pharmaceutically acceptable salt thereof with or without optional ingredients against Iron deficient Diet (IDD) induced anaemia in rats. For this study different parameters like Hb Level, Hematocrit level, Serum Iron level, Ferroportin level, Serum Ferritin level, Hepcidin level and IL-6 Level were evaluated. The following trials were carried out by taking reference from Wang Xl, Liu S, Xu H, Yan W, Effects of recombinant human lactoferrin on improving the iron status of IDA. Wei Sheng Yan Jiu.
(§2) 72 male Wistar rats (Rat Rattus) (6 per group) were maintained in animal house in a light/dark atmosphere based on a 12 hour cycle having temperature and relative humidity in the range of 22±3° C. and 30-70% respectively. To maintain the appropriate conditions, temperature and relative humidity were recorded three times daily. All animals were acclimatized for a minimum period of five days. Animals were maintained in the test setup for minimum 30 minutes once during the acclimatization period to reduce the stress. Animals were weighed on the day of receipt and observed daily for abnormalities if any. Detailed records of acclimatization were also maintained. Rats were housed 6 per cage in clean, sterilized Polypropylene cages. […]
After 3 weeks of respective dietary intervention, the level of Hemoglobin was determined in each animal.
(§3) After 5 weeks (35 days) of respective dietary intervention, once again hemoglobin level, HCT % level and serum iron level were analyzed and then, respective drug treatment was started with continuous administration of Iron deficient diets in all groups as mentioned above in Table 1.
(§4) After 9 weeks of respective drug treatment (total after 14 weeks from start of the study—98 days), various biochemical parameters were measured to evaluate the effect of respective individual and combination therapy on iron deficient anaemia model (G3 to G12). […]

[2] = tested on: Iron deficient Diet (IDD) induced anaemia in rats; assay: Hematocrit % level in IDD induced anaemia in rats
Method: as §1, with “Jiu. 2012 January; 41(1):13-7, 22 and Nora M. El-Sheikh, the Protective Effect of Soybean and Thyme on Iron Deficiency Anemia in Rats, the Egyptian Journal of Hospital Medicine (2008) Vol., 33: 510-520 as available.” for “Jiu.”
as §2, with “any.” for “any. Detailed records of acclimatization were also maintained. Rats were housed 6 per cage in clean, sterilized Polypropylene cages.”
(§5) After 3 weeks of respective dietary intervention, the level of Hemoglobin was determined in each animal. […]
as §3, §4

[3] = tested on: Iron deficient Diet (IDD) induced anaemia in rats; assay: Serum iron level in IDD induced anaemia in rats
Method: as §1, with “Jiu. 2012 January; 41(1):13-7, 22 and Nora M. El-Sheikh, the Protective Effect of Soybean and Thyme on Iron Deficiency Anemia in Rats, the Egyptian Journal of Hospital Medicine (2008) Vol., 33: 510-520 as available.” for “Jiu.”
as §2, with “any.” for “any. Detailed records of acclimatization were also maintained. Rats were housed 6 per cage in clean, sterilized Polypropylene cages.”
as §5, §3, §4

[4] = tested on: Iron deficient Diet (IDD) induced anaemia in rats; assay: Ferroportin level in IDD induced anaemia in rats
Method: as §1, with “Jiu. […]” for “Jiu.”
(§6) 72 male Wistar rats (Rat Rattus) (6 per group) were maintained in animal house in a light/dark atmosphere based on a 12 hour cycle having temperature and relative humidity in the range of 22±3° C. and 30-70% respectively. To maintain the appropriate conditions, temperature and relative humidity were recorded three times daily. […]
(§7) After 5 weeks (35 days) of respective dietary intervention, once again hemoglobin level, HCT % level and serum iron level were analyzed and then, respective drug treatment was started with continuous administration of Iron deficient diets in all groups as mentioned above in Table 1. […]

[5] = tested on: Iron deficient Diet (IDD) induced anaemia in rats; assay: Serum ferritin level in IDD induced anaemia in rats
Method: as §1, with “Jiu. […]” for “Jiu.”
as §6, §7

[6] = tested on: Iron deficient Diet (IDD) induced anaemia in rats; assay: Hepcidin level in IDD induced anaemia in rats
Method: as §1, with “Jiu. […]” for “Jiu.”
as §6, §7

[7] = tested on: Iron deficient Diet (IDD) induced anaemia in rats; assay: IL-6 level in IDD induced anaemia in rats
Method: as §1
as §6, with “daily. All animals were acclimatized for a minimum period of five days.” for “daily.”
as §7

[8] = Day 98, after 9 weeks of treatment p.o.

B1: Lactoferrin: multifunctional globular glycoprotein of the transferrin family, about 80 kDa; individual component group (protein, UniProt P02788 20-710, looked up)
Lactotransferrin: GRRRSVQWCAVSQPEATKCFQWQRNMRKVRGPPVSCIKRDSPIQCIQAIAENRADAVTLDGGFIYEAGLAPYKLRPVAAEVYGTERQPRTHYYAVAVVKKGGSFQLNELQGLKSCHTGLRRTAGWNVPIGTLRPFLNWTGPPEPIEAAVARFFSASCVPGADKGQFPNLCRLCAGTGENKCAFSSQEPYFSYSGAFKCLRDGAGDVAFIRESTVFEDLSDEAERDEYELLCPDNTRKPVDKFKDCHLARVPSHAVVARSVNGKEDAIWNLLRQAQEKFGKDKSPKFQLFGSPSGQKDLLFKDSAIGFSRVPPRIDSGLYLGSGYFTAIQNLRKSEEEVAARRARVVWCAVGEQELRKCNQWSGLSEGSVTCSSASTTEDCIALVLKGEADAMSLDGGYVYTAGKCGLVPVLAENYKSQQSSDPDPNCVDRPVEGYLAVAVVRRSDTSLTWNSVKGKKSCHTAVDRTAGWNIPMGLLFNQTGSCKFDEYFSQSCAPGSDPRSNLCALCIGDEQGENKCVPNSNERYYGYTGAFRCLAENAGDVAFVKDVTVLQNTDGNNNEAWAKDLKLADFALLCLDGKRKPVTEARSCHLAMAPNHAVVSRMDKVERLKQVLLHQQAKFGRNGSDCPDKFCLFQSETKNLLFNDNTECLARLHGKTTYEKYLGPQYVAGITNLKKCSTSPLLEACEFLRK
Q: For B1, which Hemoglobin Pre-treatment ([1]; Day 35, before treatment) is on record?
A: 8.8 g/dL

Q: And the Hemoglobin Post-treatment [1, 8]?
A: 10.3 g/dL

Q: And the “Hemoglobin % Change compared to Disease control” value ([1]; Day 98)?
A: 58.8%

Q: What about the “Hematocrit Pre-treatment” value ([2]; Day 35, before treatment) of the same molecule?
A: 35.33%

Q: What about the “Hematocrit Post-treatment” value [2, 8] of the same molecule?
A: 40.17%

Q: What about the “Hematocrit % Change compared to Disease control” value ([2]; Day 98) of the same molecule?
A: 56.3%

Q: What about the “Serum IRON Pre-treatment” value ([3]; Day 35, before treatment) of the same molecule?
A: 3.08 ppm

Q: And the “Serum IRON Post-treatment” value [3, 8]?
A: 5.31 ppm

Q: What about the “Serum IRON % Change compared to Disease control” value ([3]; Day 98) of the same molecule?
A: 99.1%

Q: What about the “Ferroportin Post-treatment” value [4, 8] of the same molecule?
A: 3.6 ng/mL

Q: And the “Ferroportin % Change compared to Disease control” value ([4]; Day 98)?
A: 31.4%

Q: What about the “Ferritin Post-treatment” value [5, 8] of the same molecule?
A: 680 ng/mL

Q: And the “Ferritin % Change compared to Disease control” value ([5]; Day 98)?
A: −8.1%

Q: What about the “Hepcidin Post-treatment” value [6, 8] of the same molecule?
A: 3830 ng/mL

Q: What about the “Hepcidin % Change compared to Disease control” value ([6]; Day 98) of the same molecule?
A: −13.0%

Q: And the “IL-6 Post-treatment” value [7, 8]?
A: 57.2 pg/mL

Q: What about the “IL-6 % Change compared to Disease control” value ([7]; Day 98) of the same molecule?
A: −8.2%
